In patent publication US20040132659A1 (UNIVERSITY OF SOUTHERN CALIFORNIA, published 2004):

Tests used:
[1] = target: integrin αvβ5 on cells (human) (UniProt P06756); assay: cell-based or functional assay
integrin αvβ3 on cells = integrin αvβ3 on cells (human, UniProt P06756 31-1048; P05106 27-788); assay: cell-based or functional assay
[2] = target: integrin receptors on the surface of MDA-MB-435 cells; assay: inhibition of binding of MDA-MB-435 cells to immobilized CN (0.1 µg/well); competitor: immobilized CN
[3] = target: integrin receptors on the surface of MDA-MB-435 cells; assay: cell-based or functional assay
[4] = target: T1, platelet membrane glycoprotein (GP)IIb/IIIa on human platelets (human, UniProt P08514 32-1039; P05106 27-788); assay: Scatchard analysis of CN binding to unactivated human platelets
T1 construct: whole, on cells; also called fibrinogen receptor; αIIbβ3
T1 sequence (P08514 32-1039, chain 1 of 2): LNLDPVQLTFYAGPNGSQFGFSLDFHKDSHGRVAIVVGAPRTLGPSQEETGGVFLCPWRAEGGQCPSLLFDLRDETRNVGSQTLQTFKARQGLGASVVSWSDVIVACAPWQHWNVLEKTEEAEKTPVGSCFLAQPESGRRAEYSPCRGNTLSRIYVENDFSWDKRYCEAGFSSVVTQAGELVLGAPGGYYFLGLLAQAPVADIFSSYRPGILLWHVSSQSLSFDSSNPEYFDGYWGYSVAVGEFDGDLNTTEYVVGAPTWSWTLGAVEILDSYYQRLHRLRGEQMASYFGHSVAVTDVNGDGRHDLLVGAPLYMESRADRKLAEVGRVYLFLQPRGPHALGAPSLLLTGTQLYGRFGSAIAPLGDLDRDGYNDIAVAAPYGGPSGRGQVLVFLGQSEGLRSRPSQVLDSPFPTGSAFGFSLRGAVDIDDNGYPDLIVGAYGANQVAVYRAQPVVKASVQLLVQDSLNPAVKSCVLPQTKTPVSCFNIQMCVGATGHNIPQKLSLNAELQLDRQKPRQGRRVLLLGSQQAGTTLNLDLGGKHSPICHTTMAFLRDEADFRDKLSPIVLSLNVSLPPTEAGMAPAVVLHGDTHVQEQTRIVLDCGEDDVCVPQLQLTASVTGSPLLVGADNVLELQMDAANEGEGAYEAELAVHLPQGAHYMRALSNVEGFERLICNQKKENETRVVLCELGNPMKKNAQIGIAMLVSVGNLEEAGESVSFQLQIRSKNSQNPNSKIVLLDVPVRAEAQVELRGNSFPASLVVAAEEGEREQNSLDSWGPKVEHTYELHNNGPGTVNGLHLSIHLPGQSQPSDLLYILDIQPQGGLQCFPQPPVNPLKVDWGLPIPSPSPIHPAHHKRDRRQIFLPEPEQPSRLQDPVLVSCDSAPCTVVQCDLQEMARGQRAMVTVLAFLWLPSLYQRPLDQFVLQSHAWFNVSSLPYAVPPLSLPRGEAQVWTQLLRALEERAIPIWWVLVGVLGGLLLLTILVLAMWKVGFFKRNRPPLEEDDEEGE
T1 sequence (P05106 27-788, chain 2 of 2): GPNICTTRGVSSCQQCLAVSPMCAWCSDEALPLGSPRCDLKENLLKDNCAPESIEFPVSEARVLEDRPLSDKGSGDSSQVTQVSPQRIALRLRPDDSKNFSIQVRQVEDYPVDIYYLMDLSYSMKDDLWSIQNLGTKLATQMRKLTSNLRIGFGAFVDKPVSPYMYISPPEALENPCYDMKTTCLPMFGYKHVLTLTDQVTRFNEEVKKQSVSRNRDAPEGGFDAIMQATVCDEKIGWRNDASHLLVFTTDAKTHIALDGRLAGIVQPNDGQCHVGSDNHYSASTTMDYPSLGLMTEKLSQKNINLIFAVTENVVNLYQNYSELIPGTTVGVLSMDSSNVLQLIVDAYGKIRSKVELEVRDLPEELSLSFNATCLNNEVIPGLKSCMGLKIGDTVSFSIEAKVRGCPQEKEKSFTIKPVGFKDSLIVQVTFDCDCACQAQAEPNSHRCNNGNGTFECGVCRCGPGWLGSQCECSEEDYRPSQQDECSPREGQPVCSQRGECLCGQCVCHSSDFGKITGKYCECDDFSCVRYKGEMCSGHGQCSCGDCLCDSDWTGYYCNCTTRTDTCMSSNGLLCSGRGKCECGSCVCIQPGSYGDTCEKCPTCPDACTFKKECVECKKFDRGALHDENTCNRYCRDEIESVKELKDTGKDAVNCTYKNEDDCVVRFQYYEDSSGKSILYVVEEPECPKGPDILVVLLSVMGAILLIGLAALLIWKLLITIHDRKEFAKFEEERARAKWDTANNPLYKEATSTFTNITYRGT

[5] = target: binding sites on human melanoma M24met cells; assay: binding of CN to human melanoma M24met cells, high affinity site
[6] = target: binding sites on human melanoma M24met cells; assay: binding of CN to human melanoma M24met cells, lower affinity site
[7] = target: T1, platelet membrane glycoprotein …

Chain of integrin αvβ3 on cells (P06756 31-1048, chain 1 of 2): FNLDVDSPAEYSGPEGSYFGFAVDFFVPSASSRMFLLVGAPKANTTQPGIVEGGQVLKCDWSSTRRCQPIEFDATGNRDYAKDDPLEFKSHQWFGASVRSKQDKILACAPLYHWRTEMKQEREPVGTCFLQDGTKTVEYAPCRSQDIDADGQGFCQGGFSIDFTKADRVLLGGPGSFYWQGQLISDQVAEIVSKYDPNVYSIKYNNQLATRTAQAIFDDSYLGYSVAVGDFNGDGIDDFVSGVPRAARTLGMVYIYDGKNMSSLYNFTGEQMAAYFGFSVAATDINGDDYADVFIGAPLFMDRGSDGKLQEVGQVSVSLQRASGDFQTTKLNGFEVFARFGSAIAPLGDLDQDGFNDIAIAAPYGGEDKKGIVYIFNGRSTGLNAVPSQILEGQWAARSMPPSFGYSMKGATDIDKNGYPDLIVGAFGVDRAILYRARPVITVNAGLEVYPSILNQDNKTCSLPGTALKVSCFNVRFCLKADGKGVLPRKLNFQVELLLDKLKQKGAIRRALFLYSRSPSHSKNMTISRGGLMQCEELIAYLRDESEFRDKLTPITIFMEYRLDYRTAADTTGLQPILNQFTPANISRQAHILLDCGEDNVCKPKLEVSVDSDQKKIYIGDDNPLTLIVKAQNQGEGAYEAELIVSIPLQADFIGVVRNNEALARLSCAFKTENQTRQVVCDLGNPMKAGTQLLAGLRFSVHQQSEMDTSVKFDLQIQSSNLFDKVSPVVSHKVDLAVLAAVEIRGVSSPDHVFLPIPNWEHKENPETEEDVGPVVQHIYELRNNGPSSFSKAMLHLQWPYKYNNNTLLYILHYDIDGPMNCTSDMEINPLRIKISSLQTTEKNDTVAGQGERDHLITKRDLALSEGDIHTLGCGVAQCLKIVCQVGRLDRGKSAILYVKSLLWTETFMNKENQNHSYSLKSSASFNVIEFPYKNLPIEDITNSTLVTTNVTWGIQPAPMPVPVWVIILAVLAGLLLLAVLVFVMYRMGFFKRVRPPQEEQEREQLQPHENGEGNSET
Chain of integrin αvβ3 on cells (P05106 27-788, chain 2 of 2): as the sequence (P05106 27-788, chain 2 of 2) above
Chain of integrin αvβ5 on cells (human) (P06756 31-1048, chain 1 of 2): as the sequence (P06756 31-1048, chain 1 of 2) above
Chain of integrin αvβ5 on cells (human) (P18084 24-799, chain 2 of 2, further chain): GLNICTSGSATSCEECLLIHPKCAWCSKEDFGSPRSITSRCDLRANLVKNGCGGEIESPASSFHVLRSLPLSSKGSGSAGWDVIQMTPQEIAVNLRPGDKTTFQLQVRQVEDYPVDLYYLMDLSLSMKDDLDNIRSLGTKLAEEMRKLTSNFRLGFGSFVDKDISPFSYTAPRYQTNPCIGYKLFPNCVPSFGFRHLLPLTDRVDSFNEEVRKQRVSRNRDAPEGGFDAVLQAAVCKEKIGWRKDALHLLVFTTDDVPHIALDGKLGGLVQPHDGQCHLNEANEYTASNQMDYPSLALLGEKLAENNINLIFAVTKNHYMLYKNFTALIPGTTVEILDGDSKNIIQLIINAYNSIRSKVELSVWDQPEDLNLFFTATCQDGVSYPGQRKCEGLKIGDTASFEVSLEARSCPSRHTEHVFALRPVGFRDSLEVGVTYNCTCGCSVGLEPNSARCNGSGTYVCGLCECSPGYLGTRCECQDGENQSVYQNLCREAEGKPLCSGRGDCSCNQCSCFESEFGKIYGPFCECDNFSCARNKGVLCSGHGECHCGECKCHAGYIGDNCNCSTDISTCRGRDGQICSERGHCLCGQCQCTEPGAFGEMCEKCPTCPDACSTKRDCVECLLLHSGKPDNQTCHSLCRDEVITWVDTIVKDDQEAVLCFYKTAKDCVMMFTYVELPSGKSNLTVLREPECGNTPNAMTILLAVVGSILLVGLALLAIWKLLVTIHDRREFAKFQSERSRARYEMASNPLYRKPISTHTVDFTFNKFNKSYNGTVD

## P1F6 monoclonal antibody
[1]
  inhibition of adhesion of T24-β3 neg. cells to immobilized vitronectin: 80%
  inhibition of adhesion of T24 cells to immobilized vitronectin: < 40%

## 7E3 murine monoclonal antibody
Integrin αvβ3 on cells
  maximum inhibition of adhesion of T24 cells to immobilized vitronectin: < 40%

B1: RGD peptide GRGDSP (peptide)
peptide: GRGDSP
[2]
  IC50: 400000 nM

B2: contortrostatin (ligand)
chain: DAPANPCCDAATCKLTTGSQCADGLCCDQCKFMKEGTVCRRARGDDLDDYCNGISAGCPRNPFHA
notes: also called CN; homodimeric disintegrin
[3]
  IC50 for inhibition of adhesion of MDA-MB-435 cells to immobilized fibronectin: 18 nM
[4]
  Kd: 37 nM
[5]
  Kd: 1.1 nM
  sites per cell (sites per cell): 96000
[6]
  Kd: 41 nM
  sites per cell (sites per cell): 480000
[7]
  IC50: 25 nM
Integrin αvβ3 on cells
  IC50 for inhibition of adhesion of MDA-MB-435 cells to immobilized vitronectin: 1.5 nM
